Among the data in patent publication US20120283168A1 are IC50 (nM) Calcium Flux Assay and IC50 (nM) Chemotaxis Assay values, retold here.

The target in the assay is human CCR10 (human) (UniProt P46092). Put plainly: cell-based or functional assay.
human CCR10 (human), sequence (P46092 whole entry): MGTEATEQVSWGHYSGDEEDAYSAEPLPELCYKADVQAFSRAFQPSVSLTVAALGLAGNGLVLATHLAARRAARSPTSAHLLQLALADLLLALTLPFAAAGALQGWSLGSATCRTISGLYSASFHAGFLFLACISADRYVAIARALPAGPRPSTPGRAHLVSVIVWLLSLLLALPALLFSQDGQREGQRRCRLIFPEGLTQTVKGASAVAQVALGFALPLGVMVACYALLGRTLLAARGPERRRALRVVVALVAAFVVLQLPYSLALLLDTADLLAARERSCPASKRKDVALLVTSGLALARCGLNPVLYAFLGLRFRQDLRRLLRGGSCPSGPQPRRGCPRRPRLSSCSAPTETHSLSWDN
“cyclo(-Trp(6Cl)-Cyp-Trp-Ser-^DPro-Oic-) (peptide)”: the IC50 (nM) Calcium Flux Assay stood at 6.3 nM and the IC50 (nM) Chemotaxis Assay worked out at 5 nM.

Turning to “cyclo(-Trp-4,4-AC-ThioTHP-Trp-Dab-^DPro-Oic-) (peptide)”, the IC50 (nM) Calcium Flux Assay stood at 823 nM and the IC50 (nM) Chemotaxis Assay was determined as 21.9 nM. In the same order, the values of “cyclo(-Trp-Ac7c-Trp-Dab-^DPro-Oic-) (peptide)” are 393 nM and 7.2 nM.

As to “cyclo(-Trp-Ac8c-Trp-Dab-^DPro-Oic-) (peptide)”, the IC50 (nM) Calcium Flux Assay stood at 706 nM and the IC50 (nM) Chemotaxis Assay is 257 nM. For “cyclo(-Trp-Chx(4-oxo)-Trp-Dab-^DPro-Oic-) (peptide)”, the IC50 (nM) Calcium Flux Assay stood at 262 nM and the IC50 (nM) Chemotaxis Assay worked out at 17.8 nM.

For the substance “cyclo(-Trp-Chx-Trp-Dab-^DPro-Oic-) (peptide)”, the IC50 (nM) Calcium Flux Assay is 333 nM and the IC50 (nM) Chemotaxis Assay turned out to be 3.1 nM. As for “cyclo(-Trp-Cyp-2Nal-Dab-^DPip-Oic-) (peptide)”, the IC50 (nM) Calcium Flux Assay came out at 70.5 nM. On the same count and under the same terms, under “cyclo(-Trp-Cyp-2Nal-Gln-^DPro-Oic-) (peptide)” stands 35.3 nM; under “cyclo(-Trp-Cyp-Ala(2Furyl)-Dab-^DPro-Oic-) (peptide)”, 132 nM. As for “cyclo(-Trp-Cyp-Ala(2Quin)-Dab-^DPro-Oic-) (peptide)”, the IC50 (nM) Calcium Flux Assay turned out to be 283 nM and the IC50 (nM) Chemotaxis Assay is 30.3 nM. With “cyclo(-Trp-Cyp-Phe(4CF3)-Dab-^DPro-Oic-) (peptide)”, the IC50 (nM) Calcium Flux Assay is 58.6 nM and the IC50 (nM) Chemotaxis Assay stood at 38.7 nM. Turning to “cyclo(-Trp-Cyp-Phe(4Cl)-Dab-^DPro-Hyp(Bn)-) (peptide)”, the IC50 (nM) Calcium Flux Assay is 39.9 nM.

For the substance “cyclo(-Trp-Cyp-Phe(4Cl)-Ser-^DPro-Oic-) (peptide)”, the IC50 (nM) Calcium Flux Assay stood at 6.1 nM and the IC50 (nM) Chemotaxis Assay is 2.7 nM. For “cyclo(-Trp-Cyp-Phe(4F)-Dab-^DPro-Oic-) (peptide)”, the IC50 (nM) Calcium Flux Assay is 120 nM. “cyclo(-Trp-Cyp-Phe(4F)-Ser-^DPro-Oic-) (peptide)”: the IC50 (nM) Calcium Flux Assay worked out at 8.8 nM and the IC50 (nM) Chemotaxis Assay was 12 nM. On the same counts, the results for “cyclo(-Trp-Cyp-Trp-Ala(Ppz)-^DPro-Oic-) (peptide)” are 1060 nM and 16.4 nM. For “cyclo(-Trp-Cyp-Trp-Arg-^DAze-Tic-) (peptide)”, the IC50 (nM) Calcium Flux Assay is 70.4 nM. Consider “cyclo(-Trp-Cyp-Trp-Arg-^DPro-Thz-) (peptide)”, for which the IC50 (nM) Calcium Flux Assay came out at 70.6 nM. Same read-out and setting: under “cyclo(-Trp-Cyp-Trp-Arg-^DPro-Tic(7OH)-) (peptide)” stands 78.5 nM; under “cyclo(-Trp-Cyp-Trp-Dab(4Me2NPhSO2)-^DPro-Oic-) (peptide)”, 6.4 nM. With “cyclo(-Trp-Cyp-Trp-Dab((MeO(CH2)2)(Me)NCO)-^DPro-Oic-) (peptide)”, the IC50 (nM) Calcium Flux Assay came to 8.1 nM and the IC50 (nM) Chemotaxis Assay was determined as 5.6 nM.

Regarding “cyclo(-Trp-Cyp-Trp-Dab(Ac)-^DPro-Oic-) (peptide)”, the IC50 (nM) Calcium Flux Assay is 30.3 nM and the IC50 (nM) Chemotaxis Assay turned out to be 4.8 nM.

In the case of “cyclo(-Trp-Cyp-Trp-Dab(Dab)-^DPro-Oic-) (peptide)”, the IC50 (nM) Calcium Flux Assay stood at 567 nM and the IC50 (nM) Chemotaxis Assay was determined as 50.2 nM. On the same counts, the results for “cyclo(-Trp-Cyp-Trp-Dab(MEMCO)-^DPro-Oic-) (peptide)” are 62.8 nM and 11.5 nM. As for “cyclo(-Trp-Cyp-Trp-Dab(MeO(CH2)2NHCO)-^DPro-Oic-) (peptide)”, the IC50 (nM) Calcium Flux Assay was 24.2 nM and the IC50 (nM) Chemotaxis Assay stood at 5.3 nM.

For “cyclo(-Trp-Cyp-Trp-Dab(MePpzCO)-^DPro-Oic-) (peptide)”, the IC50 (nM) Calcium Flux Assay turned out to be 53.9 nM and the IC50 (nM) Chemotaxis Assay worked out at 5.3 nM.

Consider “cyclo(-Trp-Cyp-Trp-Dab(MeSO2)-^DPro-Oic-) (peptide)”, for which the IC50 (nM) Calcium Flux Assay stood at 0.2 nM and the IC50 (nM) Chemotaxis Assay turned out to be 3.4 nM.

Take “cyclo(-Trp-Cyp-Trp-Dab(morphCO)-^DPro-Oic-) (peptide)”: the IC50 (nM) Calcium Flux Assay came to 3 nM and the IC50 (nM) Chemotaxis Assay was 11.1 nM. “cyclo(-Trp-Cyp-Trp-Dab-^DAze-Tic-) (peptide)”: the IC50 (nM) Calcium Flux Assay stood at 57 nM. As to “cyclo(-Trp-Cyp-Trp-Dab-^DPip-Oic-) (peptide)”, the IC50 (nM) Calcium Flux Assay came out at 26 nM and the IC50 (nM) Chemotaxis Assay was 17 nM. In the case of “cyclo(-Trp-Cyp-Trp-Dab-^DPro-(4S)-Hyp(Bn)-) (peptide)”, the IC50 (nM) Calcium Flux Assay came to 260 nM and the IC50 (nM) Chemotaxis Assay turned out to be 60.1 nM. For the substance “cyclo(-Trp-Cyp-Trp-Dab-^DPro-Hyp(3CNBn)-) (peptide)”, the IC50 (nM) Calcium Flux Assay was found to be 127 nM and the IC50 (nM) Chemotaxis Assay is 50.7 nM. On the same counts, the results for “cyclo(-Trp-Cyp-Trp-Dab-^DPro-Hyp(4BrBn)-) (peptide)” are 11.6 nM and 2.5 nM. On the same counts, the results for “cyclo(-Trp-Cyp-Trp-Dab-^DPro-Hyp(4CNBn)-) (peptide)” are 48.9 nM and 143 nM. “cyclo(-Trp-Cyp-Trp-Dab-^DPro-Hyp(Bn)-) (peptide)”: the IC50 (nM) Calcium Flux Assay was determined as 65.8 nM and the IC50 (nM) Chemotaxis Assay amounted to 14 nM. Take “cyclo(-Trp-Cyp-Trp-Dab-^DPro-Hyp(CONHPh)-) (peptide)”: the IC50 (nM) Calcium Flux Assay is 150 nM and the IC50 (nM) Chemotaxis Assay stood at 184 nM. Regarding “cyclo(-Trp-Cyp-Trp-Dab-^DPro-Hyp(Ph)-) (peptide)”, the IC50 (nM) Calcium Flux Assay turned out to be 42 nM and the IC50 (nM) Chemotaxis Assay is 37 nM. In the case of “cyclo(-Trp-Cyp-Trp-Dab-^DPro-Hyp-) (peptide)”, the IC50 (nM) Calcium Flux Assay worked out at 190 nM. Consider “cyclo(-Trp-Cyp-Trp-Dab-^DPro-Oic-) (peptide)”, for which the IC50 (nM) Calcium Flux Assay came to 123 nM and the IC50 (nM) Chemotaxis Assay is 29 nM. As for “cyclo(-Trp-Cyp-Trp-Dab-^DPro-Pro(5,5Me2)-) (peptide)”, the IC50 (nM) Calcium Flux Assay amounted to 82.5 nM and the IC50 (nM) Chemotaxis Assay came to 14.2 nM. On to “cyclo(-Trp-Cyp-Trp-Dab-^DPro-Pro((4R)3CNBn)-) (peptide)”, for which the IC50 (nM) Calcium Flux Assay is 27.9 nM and the IC50 (nM) Chemotaxis Assay is 3.8 nM. For the substance “cyclo(-Trp-Cyp-Trp-Dab-^DPro-Pro((4R)4BrBn)-) (peptide)”, the IC50 (nM) Calcium Flux Assay was 15.8 nM and the IC50 (nM) Chemotaxis Assay was found to be 9 nM. Take “cyclo(-Trp-Cyp-Trp-Dab-^DPro-Pro((4R)Bn)-) (peptide)”: the IC50 (nM) Calcium Flux Assay worked out at 26.1 nM and the IC50 (nM) Chemotaxis Assay was determined as 2.3 nM.

With “cyclo(-Trp-Cyp-Trp-Dab-^DPro-Pro((4S)F)-) (peptide)”, the IC50 (nM) Calcium Flux Assay came out at 860 nM and the IC50 (nM) Chemotaxis Assay was 42 nM.

Take “cyclo(-Trp-Cyp-Trp-Dab-^DPro-Pro((4S)cHex)-) (peptide)”: the IC50 (nM) Calcium Flux Assay was 54.3 nM and the IC50 (nM) Chemotaxis Assay was found to be 140 nM.

For “cyclo(-Trp-Cyp-Trp-Dab-^DPro-Thz-) (peptide)”, the IC50 (nM) Calcium Flux Assay was determined as 134 nM and the IC50 (nM) Chemotaxis Assay is 19.6 nM.
